Measurements from PMC6699766 (Nature plants, 2019).

Target: the molecule itself
Assay: negative stain TEM

B1: IsiA protein of Synechocystis sp. PCC 6803 (natural protein)
chain: not shown
- stoichiometry N: 18
